For this assay, the target named is rat ASIC3 wild type (rat) (UniProt O35240).
Chain of UniProt O35240 (O35240 whole entry): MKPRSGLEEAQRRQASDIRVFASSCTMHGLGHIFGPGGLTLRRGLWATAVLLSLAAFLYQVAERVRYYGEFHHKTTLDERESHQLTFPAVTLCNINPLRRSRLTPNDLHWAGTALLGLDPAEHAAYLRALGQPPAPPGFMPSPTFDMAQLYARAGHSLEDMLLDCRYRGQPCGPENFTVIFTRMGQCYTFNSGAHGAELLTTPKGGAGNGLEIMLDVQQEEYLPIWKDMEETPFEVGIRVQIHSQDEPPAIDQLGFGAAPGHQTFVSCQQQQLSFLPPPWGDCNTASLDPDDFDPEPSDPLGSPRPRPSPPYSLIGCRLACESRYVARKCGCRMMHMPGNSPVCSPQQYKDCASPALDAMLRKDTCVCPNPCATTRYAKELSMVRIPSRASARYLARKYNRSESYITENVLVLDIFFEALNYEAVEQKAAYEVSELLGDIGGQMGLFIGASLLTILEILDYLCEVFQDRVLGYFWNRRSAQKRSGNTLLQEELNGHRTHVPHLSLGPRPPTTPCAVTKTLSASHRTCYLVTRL

The substance “rat ASIC2a-H72N (from UniProt Q62962-1 1-512) (natural protein)” gave a proton-gated currents of Xenopus oocytes co-expressing wild-type ASIC3 and mutant ASIC2a (two-electrode voltage clamp, pH 7.0 to 3) of over 1 µA.

The values above are taken from PMC10329638.
